Experimental data from PMC3019558 (The Journal of Cell Biology, 2011).

Legend:
GDNF, NRTN, and ARTN = assay: SPR
[1] = target: HS-carrying extracellular domain of syndecan-3 purified from rat brain (rat, UniProt P33671 45-387, heparan sulfate (HS) chains); assay: SPR
HS-carrying extracellular domain of syndecan-3 purified from rat brain (rat, UniProt P33671 45-387, heparan sulfate (HS) chains), sequence (P33671 45-387): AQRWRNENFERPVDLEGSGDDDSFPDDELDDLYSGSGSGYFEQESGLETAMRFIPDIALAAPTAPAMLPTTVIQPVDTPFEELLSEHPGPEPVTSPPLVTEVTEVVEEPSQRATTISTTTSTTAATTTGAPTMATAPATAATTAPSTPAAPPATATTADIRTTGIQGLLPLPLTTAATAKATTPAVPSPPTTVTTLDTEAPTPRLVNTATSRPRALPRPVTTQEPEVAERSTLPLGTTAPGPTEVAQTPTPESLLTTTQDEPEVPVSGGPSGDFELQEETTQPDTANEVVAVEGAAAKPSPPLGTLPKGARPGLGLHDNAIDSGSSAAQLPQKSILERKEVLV

HS-carrying extracellular domain of syndecan-3 purified from rat brain (from UniProt P33671 45-387) (domain or fragment), sequence (P33671 45-387): as above

Row | Molecule | Kd (GDNF, NRTN, and ARTN) | Kd [1]
1 | HS-carrying extracellular domain of syndecan-3 purified from rat brain (from UniProt P33671 45-387) (domain or fragment) | 10 to 50 nM | –
2 | persephin (PSPN) (ligand, UniProt O60542 61-156, looked up) ALSGPCQLWSLTLSVAELGLGYASEEKVIFRYCAGSCPRGARTQHGLALARLQGQGRAHGGPCCRPTRYTDVAFLDDRHRWQRLPQLSAAACGCGG | – | > 70 nM
